The text below walks through data of publication PMC5193401, “Redox Balance in Lactobacillus reuteri DSM20016: Roles of Iron-Dependent Alcohol Dehydrogenases in Glucose/ Glycerol Metabolism” (PLoS ONE, 2016).

In general, Km refers to the substrate concentration at which the rate is half of its maximum. For orientation: Vmax means the rate approached at saturating substrate. Broadly, the kcat is the number of substrate molecules converted per active site and unit of time at saturation. One may read the kcat/Km as the turnover number divided by the Michaelis constant.

Common to all, as to assay: purified protein
What all share (type): biochemical, Limosilactobacillus reuteri

Substrate in data set [1]: NC(=O)c1ccc[n+]([C@@H]2O[C@H](COP(=O)(O)OP(=O)(O)OC[C@H]3O[C@@H](n4cnc5c(N)ncnc54)[C@H](O)[C@@H]3O)[C@@H](O)[C@H]2O)c1
To be noted: 1,3-PDO oxidation (standard 500 mM 1,3-PDO), 50 mM Tris-HCl pH 9.0, 30°C, pH 9.0, varied: cofactor.

Substrate in data set [2]: NC(=O)C1=CN([C@@H]2O[C@H](COP(=O)(O)OP(=O)(O)OC[C@H]3O[C@@H](n4cnc5c(N)ncnc54)[C@H](O)[C@@H]3O)[C@@H](O)[C@H]2O)C=CC1
To be noted: 3-HPA reduction (standard 100 mM 3-HPA), 50 mM potassium phosphate pH 7.0, 30°C, pH 7.0, varied: cofactor.

Substrate in data set [3]: O=CCCO
To be noted: 3-HPA reduction (standard 0.2 mM NADH), 50 mM potassium phosphate pH 7.0, 30°C, 3-HPA produced from glycerol by resting cells (equilibrates with hydrate and dimer), pH 7.0.

B1: ADH7-His6 (Limosilactobacillus reuteri subsp. reuteri) (protein)
chain: MNRQFDFLMPSVNFFGPGVIAKIGDRAKMLNMHKPLIVTTEGLSKIDNGPVKQTVASLEKAGVDYAVFTGAEPNPKIRNVQAGKKMYQDENCDSIITVGGGSAHDCGKGIGIVLTNGDDISKLAGIETLKNPLPPLMAVNTTAGTGSELTRHAVITNEKTHLKFVVVSWRNIPLVSFNDPMLMLDIPKDITAATGCDAFVQAIEPYVSVDHNPITDSQCKEAIQLIQTALPEVVANGHNIEARTKMVEAEMLAGMAFNNANLGYVHAMAHQLGGQYDAPHGVCCALLLTTVEEYNLIACPERFAELAKVMGFDTTGLTLYEAAQKSIDGMREMCRLVGIPSSIKEIGAKPEDFEMMAKNALKDGNAFSNPRKGTVEDIVKLYQKAYDGIY
notes: full length 390 residues (42181 Da), His6 tag from pET21a kept, E. coli BL21(DE3), Ni-NTA purified
B1: in “purified protein [1]”, the Michaelis-Menten constant (Km) turned out to be 1200 ± 100 µM, the maximal velocity (Vmax) was 4.1 µmol/min/mg, the kcat is 3.2 ± 0.9 s⁻¹ and the kcat/Km worked out at 2670 M⁻¹ s⁻¹. Also, in “purified protein [2]” (error exceeds value), the Michaelis constant (Km) is 40 ± 120 µM, the Vmax worked out at 33 µmol/min/mg, the kcat worked out at 11.3 ± 1.9 s⁻¹ and the kcat/Km worked out at 282000 M⁻¹ s⁻¹. Further, in the data set “purified protein [3]”, the Km stood at 9900 ± 1100 µM, the Vmax came out at 29.3 µmol/min/mg, the kcat came to 13.2 ± 3 s⁻¹ and the kcat/Km came out at 1330 M⁻¹ s⁻¹.

B2: PduQ-His6 (Limosilactobacillus reuteri subsp. reuteri) (protein)
chain: MEKYSMPTRIYSGTDSLKELETLNNERILLVCDSFLPGSDTLKEIESHIKDNNKCEIFSDVVPDPPLDKIMEGVQQFLKLKPTIVIGIGGGSALDTGKGIRFFGEKLGKCKINEYIAIPTTSGTGSEVTNTAVISDTKEHRKIPILEDYLTPDCALLDPKLVMTAPKSVTAYSGMDVLTHALESLVAKDANLFTVALSEEAIDAVIKHLVECYRHGDNVDARKIVHEASNIAGTAFNIAGLGICHSIAHQLGANFHVPHGLANTMLLPYVIAYNAEHSEEALHKFAIAAKKAGIAAPGVGDRLAVKRLIAKIREMARQMNCPMTLQAFGVDPAKAEELADTVVANAKKDATFPGNPVVPSDNDLKMVYEAIIR
notes: full length 373 residues (40361 Da), His6 tag from pET21a kept, E. coli BL21(DE3), Ni-NTA purified
Turning to B2, in “purified protein [1]”, the Km is 800 ± 100 µM, the Vmax stood at 3.9 µmol/min/mg, the kcat amounted to 2.6 ± 0.1 s⁻¹ and the kcat/Km is 3490 M⁻¹ s⁻¹. Also, in “purified protein [2]”, the Michaelis-Menten constant (Km) was 40 ± 10 µM, the Vmax is 12.6 µmol/min/mg, the kcat amounted to 8.5 ± 0.5 s⁻¹ and the kcat/Km was 237000 M⁻¹ s⁻¹. In “purified protein [3]”, the Km is 14500 ± 1700 µM, the Vmax worked out at 14.8 µmol/min/mg, the kcat stood at 9.9 ± 0.6 s⁻¹ and the kcat/Km was 640 M⁻¹ s⁻¹.
